Test results reported in US20180244738A1.

Target: NuRD complex (nucleosome remodeling and deacetylase corepressor complex)
Experiment: cell-based or functional assay

- tumor cell senescence (SA-β-Gal+ cells) in transfected MCF-7 and E0771 cells, 3 days: 40%
Substance: full-length SALL1, wild-type (transfected, pcDNA3.1-SALL1) (from UniProt Q9NSC2 1-1324)
